Non-standard residues stand in square brackets, D forms with d. No end group written: not given here. Arg(Me2a) = CN(C)C(=N)NCCC[C@H](N)C(=O)O; Lys(Me3) = C[N+](C)(C)CCCC[C@H](N)C(=O)O; Arg(Me2s) = CN=C(NC)NCCC[C@H](N)C(=O)O; pT = C[C@@H](OP(=O)(O)O)[C@H](N)C(=O)O; Lys(Me2) = CN(C)CCCC[C@H](N)C(=O)O; pS = N[C@@H](COP(=O)(O)O)C(=O)O; Lys(Me) = CNCCCC[C@H](N)C(=O)O
T1: Bdf1 bromodomain 2 (GST-tagged, WT) (Saccharomyces cerevisiae (strain ATCC …, UniProt P35817))
T1 chain: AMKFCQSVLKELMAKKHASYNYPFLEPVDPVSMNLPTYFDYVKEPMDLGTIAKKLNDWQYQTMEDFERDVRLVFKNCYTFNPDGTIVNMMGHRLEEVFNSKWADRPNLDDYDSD

T2: Bdf1 bromodomain 1 (GST-tagged, WT) (Saccharomyces cerevisiae (strain ATCC …, UniProt P35817))
T2 chain: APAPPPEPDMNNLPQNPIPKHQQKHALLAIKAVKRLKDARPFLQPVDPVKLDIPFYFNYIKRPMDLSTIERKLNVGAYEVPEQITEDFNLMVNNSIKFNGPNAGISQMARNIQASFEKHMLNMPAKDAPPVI


What was measured:
[1] = target: T1, Bdf1 bromodomain 2 (GST-tagged, WT); assay: histone peptide array probed with recombinant GST-bromodomain, signal normalised to myc peptide control
[2] = target: T2, Bdf1 bromodomain 1 (GST-tagged, WT); assay: as above

Binder	binding score [1]	binding score [2]
[pS]GRGKQGGKARAK(Ac)AKSRSS	0.0125	0.00484
PDPAKSAPAPKKG[pS]K(Ac)KAVT	0.142	0.0142
ARTKQTARKSTGGKAPRKQ (A R T Kme1 Q T A Rme2a Kme2 S T G G K A P R K Q)	0.00738	0.00699
ARTKQTA[Arg(Me2a)]K(Ac)S[pT]GGKAPRKQ	0	0.0043
ARTKQTARKSTGGKAPRKQ (A R T Kme1 Q T A Rme2a Kme1 S T G G K A P R K Q)	0	0.0154
ARTKQTARKSTGGKAPRKQ (A Rme2s T Kme1 Q T A Rme2s Kme1 S T G G K A P R K Q)	0.00443	0.0134
ARTKQTARKSTGGKAPRKQ (A R T Kme2 Q T A Rme2a Kme3 S T G G K A P R K Q)	0	0
ARTKQTARKSTGGKAPRKQ (A Rme2s pT Kme3 Q T A R K S T G G K A P R K Q)	0.00895	0.00538
ARTKQTARKSTGGKAPRKQ (A Rme2a T Kme3 Q T A Rme2a Kme2 S T G G K A P R K Q)	0	0
SGRGK(Ac)QGGK(Ac)ARAKAKSRSS	0.141	0.0332
ARTKQTARKSTGGKAPRKQ (A Rme2a T Kme1 Q T A Rme2a Kme1 S T G G K A P R K Q)	0	0
PDPAK(Ac)SAPAPKK(Ac)G[pS]KKAVT	0	0.00663
ARTKQTARKSTGGKAPRKQ (A R T Kme1 Q T A Rme2a Kme3 S T G G K A P R K Q)	0	0.00179
ARTKQTARKSTGGKAPRKQ (A Rme2a T Kme3 Q T A Rme2a K S T G G K A P R K Q)	0.00541	0.0102
ARTKQTARKSTGGKAPRKQ (A R T Kac Q T A Rme2a Kme3 S T G G K A P R K Q)	0	0.0328
PDPAK(Ac)SAPAPKKGSKKAVT	0	0.00502
ARTKQTARKSTGGKAPRKQ (A R T K Q T A Rme2s Kme3 S pT G G K A P R K Q)	0.00561	0
ARTKQTARKSTGGKAPRKQ (A Rme2a T Kme1 Q T A Rme2a K S T G G K A P R K Q)	0.00443	0.00341
ART[Lys(Me2)]QTA[Arg(Me2a)][Lys(Me)]STGGKAPRKQ	0	0.000717
ARTKQTARKSTGGKAPRKQ (A Rme2s T Kme1 Q T A Rme2a Kac S T G G K A P R K Q)	0.00462	0.00628
ARTKQTARKSTGGKAPRKQ (A Rme2a T Kac Q T A R Kme2 S T G G K A P R K Q)	0.00915	0.0255
ARTKQTARKSTGGKAPRKQ (A Rme2a T Kme2 Q T A Rme2s Kme1 S T G G K A P R K Q)	0	0.0163
A[Arg(Me2a)]T[Lys(Me2)]QTARKSTGGKAPRKQ	0	0.00161
ARTKQTARKSTGGKAPRKQ (A R T Kme3 Q T A Rme2a Kac S T G G K A P R K Q)	0.0127	0.0142
[pS]GRGKQGGK(Ac)ARAKAKSRSS	0.00817	0
PDPAKSAPAPKKGSK(Ac)KAVT	0	0.00825

More lines, now with the values ahead:

binding score [1]	binding score [2]	Binder
0.0393	0	PRKQLATKAA[Arg(Me2a)]K(Ac)SAPATGG
0.0674	0.00753	SGRGKGGKGLGKGGAKRHR (pS G Rme2a G Kac G G K G L G K G G A K R H R)
0	0	PRKQLATKAA[Arg(Me2s)][Lys(Me)]SAPATGG
0.000295	0	ARTKQTARKSTGGKAPRKQ (A Rme2s T Kme1 Q T A R Kme3 S T G G K A P R K Q)
0.00679	0.00269	ARTKQTARKSTGGKAPRKQ (A R T K Q T A R Kme2 S T G G K A P R K Q)
0	0.00412	ARTKQTARKSTGGKAPRKQ (A Rme2s T Kac Q T A R Kme3 S T G G K A P R K Q)
0	0.00861	ARTKQTARKSTGGKAPRKQ (A Rme2s T Kme3 Q T A Rme2s K S T G G K A P R K Q)
0.00836	0.0145	A[Arg(Me2s)]TK(Ac)QTA[Arg(Me2a)][Lys(Me3)]STGGKAPRKQ
0	0.00448	A[Arg(Me2a)]T[Lys(Me)]QTA[Arg(Me2s)][Lys(Me2)]STGGKAPRKQ
0.0652	0	SGRGKGGKGLGKGGAKRHR (S G Rme2s G Kac G G K G L G K G G A K R H R)
0	0	PRKQLATKAARK(Ac)[pS]APATGG
0.00108	0.00681	ARTKQTARKSTGGKAPRKQ (A Rme2s T Kme3 Q T A Rme2a Kme3 S T G G K A P R K Q)
0.081	0.00843	PRKQLATKAA[Arg(Me2s)]K(Ac)SAPATGG
0	5.8e-17	PRKQLATKAA[Arg(Me2s)][Lys(Me3)]SAPATGG

— article PMC5261807 (2017)
